Source: patent US6716813B2, “Use of antimicrobial proteins and peptides for the treatment of otitis media and paranasal sinusitis” (priority 2000, dated 2004)

Legend:
NTHi strain12 = type: cell-based, nontypeable Haemophilus influenzae; settings: 100 mM NaCl in gel
Experimental: (§1) The bacteria used in the following examples were cultured as follows: Stocks of NTHi12 and M. catarrhalis […] (generous gift of Dr. Xin-Xing Gu) were maintained at -80° C. For experiments, the bacteria were plated on chocolate agar and incubated overnight at 37° C. in 5% CO2. A single colony was then picked and transferred to 10 ml of brain heart infusion (BHI, Becton Dickinson, Cockeysville, Md.), supplemented with hemin (10 μg/ml, Sigma, St. Louis, Mo.) and NAD (10 μg/ml, Sigma, St. Louis, Mo.), and allowed to grow overnight. In the morning, 1/10 volume of the overnight culture was transferred to fresh medium and incubated for 3-hours. The subculture was then washed twice with 10 mM sodium phosphate and the O.D. at 620 nm was determined. For the S. pneumoniae serotypes 3 and 6B (generous gift of Dr. Xin-Xing Gu), a 50 μl aliquot of the -80° C. stock was thawed on ice, added to 10 ml of Todd-Hewitt broth (THB, Becton Dickinson, Cockeysville, Md.) and cultured overnight. […] The subculture was then washed twice with 10 mM sodium phosphate and the O.D. at 620 nm was determined. […] The diameter of the zones of inhibition produced by each of the antimicrobial molecules against the OM pathogens (NTHi, M. catarrhalis and S. pneumoniae) was then measured in three separate experiments and the average and standard deviation were calculated. […]

[1] = system: M. catarrhalis strain 035E; type: cell-based, Moraxella catarrhalis; settings: 100 mM NaCl in gel
Experimental: as §1

[2] = system: S. pneumoniae serotype 6B; type: cell-based, Streptococcus pneumoniae
Experimental: (§2) The bacteria used in the following examples were cultured as follows: Stocks of NTHi12 and M. catarrhalis […] (generous gift of Dr. Xin-Xing Gu) were maintained at -80° C. For experiments, the bacteria were plated on chocolate agar and incubated overnight at 37° C. in 5% CO2. A single colony was then picked and transferred to 10 ml of brain heart infusion (BHI, Becton Dickinson, Cockeysville, Md.), supplemented with hemin (10 μg/ml, Sigma, St. Louis, Mo.) and NAD (10 μg/ml, Sigma, St. Louis, Mo.), and allowed to grow overnight. In the morning, 1/10 volume of the overnight culture was transferred to fresh medium and incubated for 3-hours. The subculture was then washed twice with 10 mM sodium phosphate and the O.D. at 620 nm was determined. For the S. pneumoniae serotypes 3 and 6B (generous gift of Dr. Xin-Xing Gu), a 50 μl aliquot of the -80° C. stock was thawed on ice, added to 10 ml of Todd-Hewitt broth (THB, Becton Dickinson, Cockeysville, Md.) and cultured overnight. One tenth of the volume of the overnight culture was then transferred to fresh medium and incubated for 3-hours. The subculture was then washed twice with 10 mM sodium phosphate and the O.D. at 620 nm was determined. The radial assay method of […] and coworkers was used, with minor modifications ([…] et al., 1991). The subcultured bacteria (4×10^6 CFU/10 ml underlay gel) were mixed with melted underlay gel at 42° C. (0.1×culture broth-BHI for NTHi and Moraxella and THB for S. pneumoniae-10 mM sodium phosphate, 0.8% low electroendosmosis (EEO)-type agarose) and poured into 8 cm×8 cm square petri plates. The gel was allowed to solidify in the petri plates and wells were punched out with a calibrated 200 μl micropipette tip, cut off at the 50 μl mark (approximately 3 mm). The antimicrobial peptides and proteins were dissolved in 0.01% acetic acid and 4 μl was added to each well. The plates were then incubated for 3 hours at 37° C. in the 5% CO2 incubator. They were next overlaid with the overlay gel (0.5×culture broth, 10 mM sodium phosphate, 0.8% low EEO-type agarose) and covered. The plates were then allowed to incubate overnight at 37° C. in a 5% CO2. The diameter of the zones of inhibition produced by each of the antimicrobial molecules against the OM pathogens (NTHi, M. catarrhalis and S. pneumoniae) was then measured in three separate experiments and the average and standard deviation were calculated. Physiologically, salt concentrations vary depending on the site. However, typically they can be as high as 150 mM. Thus, the salt sensitivity of the antimicrobial molecules was tested. NaCl was added to the gel in Example 2 to obtain a final concentration of 100 mM.

S. pneumoniae serotype 3 = type: cell-based, Streptococcus pneumoniae
Experimental: as §2

B1: lactoferrin (protein, UniProt P02788 20-710, looked up)
Lactotransferrin: GRRRSVQWCAVSQPEATKCFQWQRNMRKVRGPPVSCIKRDSPIQCIQAIAENRADAVTLDGGFIYEAGLAPYKLRPVAAEVYGTERQPRTHYYAVAVVKKGGSFQLNELQGLKSCHTGLRRTAGWNVPIGTLRPFLNWTGPPEPIEAAVARFFSASCVPGADKGQFPNLCRLCAGTGENKCAFSSQEPYFSYSGAFKCLRDGAGDVAFIRESTVFEDLSDEAERDEYELLCPDNTRKPVDKFKDCHLARVPSHAVVARSVNGKEDAIWNLLRQAQEKFGKDKSPKFQLFGSPSGQKDLLFKDSAIGFSRVPPRIDSGLYLGSGYFTAIQNLRKSEEEVAARRARVVWCAVGEQELRKCNQWSGLSEGSVTCSSASTTEDCIALVLKGEADAMSLDGGYVYTAGKCGLVPVLAENYKSQQSSDPDPNCVDRPVEGYLAVAVVRRSDTSLTWNSVKGKKSCHTAVDRTAGWNIPMGLLFNQTGSCKFDEYFSQSCAPGSDPRSNLCALCIGDEQGENKCVPNSNERYYGYTGAFRCLAENAGDVAFVKDVTVLQNTDGNNNEAWAKDLKLADFALLCLDGKRKPVTEARSCHLAMAPNHAVVSRMDKVERLKQVLLHQQAKFGRNGSDCPDKFCLFQSETKNLLFNDNTECLARLHGKTTYEKYLGPQYVAGITNLKKCSTSPLLEACEFLRK
- effect of salt on the growth inhibitory effect against NTHi (NTHi strain12): completely blocked
- effect of salt on the growth inhibitory effect against M. catarrhalis [1]: completely blocked
- effect of salt on the growth inhibitory effect against S. pneumoniae serotype 6B ([2]; 100 mM NaCl in gel): completely blocked
- effect on growth of S. pneumoniae serotype 6B ([2]; 10 and 40 μg, equivalent to 2.5 and 10 mg/ml): enhancement of the growth
- effect on growth of S. pneumoniae serotype 3 (S. pneumoniae serotype 3; 10 μg, equivalent to 2.5 mg/ml): enhancement of the growth
- effect of salt on the growth inhibitory effect against S. pneumoniae serotype 3 (S. pneumoniae serotype 3; 100 mM NaCl in gel): completely blocked
